Measured values: the Immune Epitope Database (IEDB)

How the values were obtained:
HLA-B*53:01 = assay: IEDB peptide-MHC binding, purified MHC/competitive/radioactivity; filed as Kd, often an IC50 or EC50 that approximates it; ≥ and ≤ were set here for values at or beyond the usual limits of such assays; conditions: source organism: Dengue virus 4 Philippines/H241/1956
HLA-B*08:01 = assay: as above; conditions: source organism: Dengue virus 4 Philippines/H241/1956
HLA-B*51:01 [1] = assay: as above; conditions: source organism: Dengue virus 4 Philippines/H241/1956
HLA-B*58:01 = assay: as above
HLA-C*15:02 = assay: IEDB peptide-MHC binding, purified MHC/direct/fluorescence; filed as Kd, often an IC50 or EC50 that approximates it; ≥ and ≤ were set here for values at or beyond the usual limits of such assays; conditions: source organism: West Nile virus
HLA-B*51:01 [2] = assay: as above; conditions: source organism: West Nile virus
HLA-A*23:01 = assay: IEDB peptide-MHC binding, purified MHC/competitive/radioactivity; filed as Kd, often an IC50 or EC50 that approximates it; ≥ and ≤ were set here for values at or beyond the usual limits of such assays; conditions: source organism: Dengue virus 3 Singapore/8120/1995
HLA-A*32:01 = assay: as above
HLA-A*26:01 = assay: as above; conditions: source organism: Dengue virus 3 Singapore/8120/1995
HLA-A*24:02 = assay: as above; conditions: source organism: Dengue virus 3 Singapore/8120/1995
HLA-B*35:01 = assay: as above; conditions: source organism: Dengue virus 3 Singapore/8120/1995
HLA-A*02:06 = assay: as above; conditions: source organism: Dengue virus 3 Singapore/8120/1995
HLA-B*57:01 = assay: as above
HLA-A*68:02 = assay: IEDB peptide-MHC binding, purified MHC/competitive/fluorescence; filed as Kd, often an IC50 or EC50 that approximates it; ≥ and ≤ were set here for values at or beyond the usual limits of such assays; conditions: source organism: Entamoeba dispar SAW760
HLA-A*11:01 = assay: IEDB peptide-MHC binding, purified MHC/competitive/fluorescence; ≥ and ≤ were set here for values at or beyond the usual limits of such assays; conditions: source organism: Vaccinia virus WR
[3] = source organism: Dengue virus 4 Philippines/H241/1956
[4] = source organism: Dengue virus 3 Singapore/8120/1995

What does the source list for MAMTTVLSI?
Kd (HLA-B*53:01): 2.34 nM; Kd (HLA-B*08:01): 16.3 nM; Kd (HLA-B*51:01 [1]): 36.3 nM; Kd (HLA-B*58:01; [3]): 18.9 nM

GGRAHRMAL was tested. Which Kd (HLA-C*15:02) did it give?
The Kd was at least 20000 nM.

And the Kd (HLA-B*51:01 [2])?
The Kd was at least 20000 nM.

What does the source list for MIAGVLFTF?
Kd (HLA-A*23:01): 26 nM; Kd (HLA-A*32:01; [4]): 1.88 nM; Kd (HLA-A*26:01): 1230 nM; Kd (HLA-A*24:02): 50.4 nM; Kd (HLA-B*35:01): 4.73 nM; Kd (HLA-A*02:06): 22.5 nM; Kd (HLA-B*58:01; [4]): 20.2 nM

Which Kd (HLA-B*57:01; source organism: Dengue virus 1 Singapore/S275/1990) does the source give for KTSIGLLCVM here?
Its Kd is 11.4 nM.

For FYMASTWGA, which Kd (HLA-A*68:02) is on record?
Its Kd is 83.1 nM.

With WMADVPLQW as the sequence, how does the Kd (HLA-B*58:01; [4]) read?
The Kd was 0.528 nM.

How did the IC50 (HLA-A*11:01) turn out when LNTIQFMHE was run?
The IC50 was at least 147000 nM.

How did the Kd (HLA-A*32:01; [3]) turn out when KTWGKAKIF was run?
Its Kd is 60.3 nM.

What about the Kd (HLA-B*57:01; [3]) of the same sequence?
The Kd was 36.3 nM.

SAIVLEFFMM was tested. Which Kd (HLA-B*58:01; source organism: Dengue virus 3 Martinique/1243/1999) did it give?
The Kd was 198 nM.
